Key:
[1] = biological target: T1, Human CD93 on cells (human CD93 expressing CHO cells; HUVEC, U937 and KG1a cells) (human, UniProt Q9NPY3 22-652); experiment: flow cytometry titration, HUVEC cells
T1 construct: whole, on cells; also called hCD93 expressing CHO cells; hCD93 CHO cells
T1 sequence (looked up): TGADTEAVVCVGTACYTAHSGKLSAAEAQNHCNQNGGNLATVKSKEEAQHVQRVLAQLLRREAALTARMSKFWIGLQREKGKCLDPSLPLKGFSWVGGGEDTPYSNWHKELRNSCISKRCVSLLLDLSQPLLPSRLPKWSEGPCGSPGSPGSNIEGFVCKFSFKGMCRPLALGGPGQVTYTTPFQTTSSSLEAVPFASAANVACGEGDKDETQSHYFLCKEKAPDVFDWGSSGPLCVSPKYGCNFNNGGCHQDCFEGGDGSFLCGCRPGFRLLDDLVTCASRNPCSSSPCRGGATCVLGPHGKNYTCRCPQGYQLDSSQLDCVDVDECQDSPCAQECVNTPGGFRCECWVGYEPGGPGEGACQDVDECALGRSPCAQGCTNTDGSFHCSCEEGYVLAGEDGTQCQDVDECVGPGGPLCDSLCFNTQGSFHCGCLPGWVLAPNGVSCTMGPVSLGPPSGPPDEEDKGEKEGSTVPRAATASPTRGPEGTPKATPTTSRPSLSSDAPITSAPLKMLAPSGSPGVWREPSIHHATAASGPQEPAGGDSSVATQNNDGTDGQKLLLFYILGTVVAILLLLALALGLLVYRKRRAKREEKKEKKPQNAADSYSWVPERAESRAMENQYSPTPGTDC
Protocol: (§1) HUVEC cells were detached by incubation with TrypLE reagents (Thermo Fisher), which preserves the integrity of CD93 on the cell surface. Then the cells were incubated with serial diluted anti-CD93 antibodies for 30 minutes at 4° C. After washing by FACS buffer, the cells were incubated with Alexa Fluor 647 conjugated anti-human IgG (Jackson ImmunoResearch) for 30 minutes in 4° C. After washing by FACS buffer twice, the samples were acquired in NovoCyte Flow Cytometer and analyzed by NovoExpress software.

[2] = biological target: T1, Human CD93 on cells (human CD93 …); experiment: flow cytometry blocking assay, HUVEC cells; blocked ligand hIGFBP7-His 0.1 ug/ml; blocking activity runs from about 46 to about 72 % of control
Protocol: After washing with FACS buffer twice, the samples were analyzed and data acquired in NovoCyte Flow.

[3] = biological target: T1, Human CD93 on cells (human CD93 …); experiment: flow cytometry titration, HUVEC cells; antibody stored 2 weeks at 40 C
Protocol: as §1

[4] = biological target: T2, Mouse CD93 on cells (mouse CD93 expressing CHO cells; mouse CD93 expressing HEK cells) (mouse, UniProt O89103 23-644); experiment: summary table; method and form of mouse CD93 not given
T2 construct: whole, on cells; also called mCD93 HEK; CD93-HEK cells
T2 sequence (looked up): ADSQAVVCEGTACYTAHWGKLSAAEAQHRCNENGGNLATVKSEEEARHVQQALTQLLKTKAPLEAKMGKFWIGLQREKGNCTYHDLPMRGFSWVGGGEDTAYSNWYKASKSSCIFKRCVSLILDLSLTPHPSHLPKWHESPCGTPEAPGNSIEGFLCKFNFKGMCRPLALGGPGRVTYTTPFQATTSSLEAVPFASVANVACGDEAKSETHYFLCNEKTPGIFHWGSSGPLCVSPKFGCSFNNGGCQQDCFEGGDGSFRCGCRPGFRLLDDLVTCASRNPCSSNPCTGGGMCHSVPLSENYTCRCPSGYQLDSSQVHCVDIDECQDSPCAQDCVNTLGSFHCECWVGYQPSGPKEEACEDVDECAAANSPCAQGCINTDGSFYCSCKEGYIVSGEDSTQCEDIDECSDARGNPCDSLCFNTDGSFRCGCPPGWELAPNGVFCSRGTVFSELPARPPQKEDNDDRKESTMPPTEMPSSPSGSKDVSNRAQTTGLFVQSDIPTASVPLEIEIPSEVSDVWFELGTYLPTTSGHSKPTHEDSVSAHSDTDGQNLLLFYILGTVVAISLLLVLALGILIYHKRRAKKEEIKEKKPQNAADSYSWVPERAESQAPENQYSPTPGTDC

[5] = biological target: T1, Human CD93 on cells (human CD93 …); experiment: flow cytometry blocking assay, CHO-hCD93 cells, antibody 50 ug/ml then MMRN2 0.1 ug/ml, APC-A
Protocol: After incubation, the cells were washed with FACS buffer and incubated with anti-His conjugated APC or streptavidin conjugated APC at a ratio of 1:500 for 30 minutes at 4° C. After washing with FACS buffer twice, the samples were analyzed and data acquired in NovoCyte Flow.

Binder	EC50 [1]	IC50 [2]	EC50 [3]	binding result [4]	M3 gate, % of cells positive for MMRN2 after the antibody [5]
h7F3 (humanized 7F3, VH3+VL3) (antibody, human IgG1, V domains shown, also called humanized 7F3-hIgG1) VH: QVQLVQSGAEVKKPGASVKVSCKASGYTFTDYEMHWVRQAPGQGLEWMGGIDPETGDTAYNQNFKGRVTMTTDTSTSTAYMELRSLTSDDTAVYYCTNYGNLYYYAMDYWGQGTSVTVSS VL: EIVLTQSPSSLSASVGDRVTITCRASSSVSSSYLHWYQQKPGKAPKLLIYSTSNLAFGVPSRFSGSGSGTSYTFTISSLQPEDIATYYCQQYSGYPLTFGSGTKLEIK	1.34 nM	1 nM	1.17 nM		
16E4 (hybridoma) (antibody, IgG2a, V domains shown, also called 16E4 mAb; 16E4 mIgG2a) VH: QVQLQQPGAELVKPGASVKLSCKASGYTFTSYWMHWVKQRPGQGLEWIGEIDPSASYTYYNQKFKGKATLTVDKSSSTAYMQLSSLTSEDSAVYYCARSVYYGNKYFDVWGAGTTVTVSS VL: not shown				no binding	37.7%

Reference: patent publication US20230365705A1 (DYNAMICURE BIOTECHNOLOGY, published 2023)
